Data on four molecules can be found in doi:10.1101/2023.03.09.531992 (bioRxiv, 2023).

No end group written: not given here.

Experiment [1] concerns the target T1, S. cerevisiae β’WD40 domain (N-terminal WD40 domain of β’-COPI), wild type (S. cerevisiae, UniProt P41811 1-300).
T1 sequence: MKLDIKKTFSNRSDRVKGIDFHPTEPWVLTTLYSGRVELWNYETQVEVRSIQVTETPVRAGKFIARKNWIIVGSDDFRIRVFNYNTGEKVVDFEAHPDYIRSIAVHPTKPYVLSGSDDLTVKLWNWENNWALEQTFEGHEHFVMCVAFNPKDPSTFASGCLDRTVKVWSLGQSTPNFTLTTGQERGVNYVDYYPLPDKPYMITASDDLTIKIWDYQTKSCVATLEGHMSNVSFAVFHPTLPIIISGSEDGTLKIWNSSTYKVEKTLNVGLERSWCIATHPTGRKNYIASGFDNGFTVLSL
Description: NMR titration.

Experiment [2] addresses T2, S. pombe αWD40 domain (N-terminal WD40 domain of α-COPI), wild type (S. pombe, UniProt Q96WV5 1-327).
T2 sequence: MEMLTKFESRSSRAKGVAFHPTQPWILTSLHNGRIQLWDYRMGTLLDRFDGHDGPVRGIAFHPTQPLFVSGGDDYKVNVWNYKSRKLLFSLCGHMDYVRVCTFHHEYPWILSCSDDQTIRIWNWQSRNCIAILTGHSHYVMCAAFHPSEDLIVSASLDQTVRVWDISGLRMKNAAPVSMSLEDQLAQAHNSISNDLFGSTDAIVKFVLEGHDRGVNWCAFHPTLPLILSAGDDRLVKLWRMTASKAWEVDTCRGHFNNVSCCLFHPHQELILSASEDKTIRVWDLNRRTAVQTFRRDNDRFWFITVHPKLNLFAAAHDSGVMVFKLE
The experiment is described as follows: BLI.

Experiment [3] concerns the target T3, S. pombe αWD40 Arg300Ala mutant (S. pombe, UniProt Q96WV5 1-327, Arg300Ala).
T3 sequence: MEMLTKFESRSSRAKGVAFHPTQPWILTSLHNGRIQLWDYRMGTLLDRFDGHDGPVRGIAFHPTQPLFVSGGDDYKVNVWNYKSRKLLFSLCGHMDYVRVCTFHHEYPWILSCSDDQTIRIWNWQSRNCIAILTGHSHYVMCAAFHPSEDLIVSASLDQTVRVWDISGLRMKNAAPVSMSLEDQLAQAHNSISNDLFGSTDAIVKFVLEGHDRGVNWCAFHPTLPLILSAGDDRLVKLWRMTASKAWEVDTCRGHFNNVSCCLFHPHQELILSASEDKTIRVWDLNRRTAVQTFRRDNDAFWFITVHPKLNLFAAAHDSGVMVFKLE
The experiment is described as follows: BLI.

The target in experiment [4] is T4, S. pombe αWD40 Tyr139Ala mutant (S. pombe, UniProt Q96WV5 1-327, Tyr139Ala).
T4 sequence: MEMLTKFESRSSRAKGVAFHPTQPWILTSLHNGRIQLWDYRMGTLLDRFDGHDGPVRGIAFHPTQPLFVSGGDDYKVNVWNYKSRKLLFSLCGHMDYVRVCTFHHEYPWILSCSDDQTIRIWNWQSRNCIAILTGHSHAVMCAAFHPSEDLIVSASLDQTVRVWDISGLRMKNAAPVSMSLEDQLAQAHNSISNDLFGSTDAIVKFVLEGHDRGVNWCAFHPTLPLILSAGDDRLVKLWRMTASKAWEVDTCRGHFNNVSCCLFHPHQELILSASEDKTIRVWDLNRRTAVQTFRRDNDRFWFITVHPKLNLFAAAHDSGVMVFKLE
Description: BLI. For orientation: Biolayer interferometry detects binding as a change in optical thickness at a sensor tip.

For experiment [5], the target named is T1, S. cerevisiae β’WD40 domain (N-terminal …). Description: BLI.
Experiment [6] has as its target T5, S. pombe αWD40 Arg13Ala mutant (S. pombe, UniProt Q96WV5 1-327, Arg13Ala).
T5 sequence: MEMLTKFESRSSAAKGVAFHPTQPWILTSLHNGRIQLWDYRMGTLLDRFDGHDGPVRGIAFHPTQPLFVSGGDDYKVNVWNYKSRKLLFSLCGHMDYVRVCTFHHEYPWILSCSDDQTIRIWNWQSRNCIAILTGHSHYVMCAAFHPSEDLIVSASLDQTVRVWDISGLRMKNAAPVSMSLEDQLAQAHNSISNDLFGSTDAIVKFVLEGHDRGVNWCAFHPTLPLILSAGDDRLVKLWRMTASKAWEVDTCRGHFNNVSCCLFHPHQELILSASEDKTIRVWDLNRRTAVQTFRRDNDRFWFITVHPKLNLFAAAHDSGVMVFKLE
The experiment is described as follows: BLI.

CCKFDEDDSEPVLKGVKLHYE (cysteine pairing not given here; also: 15N isotope label) [15N-labeled clientized (Thr1273Glu) SARS-CoV-2 S C-terminal tail peptide (NMR)]: in experiment [1], the binding result is reported as “binds”. Turning to GVKLHYE-NH2 (also: biotinylated), in experiment [2], the binding result was “binds”. Turning to GVKLHYE (also: biotinylated) [clientized (Thr1273Glu) SARS-CoV-2 S tail heptapeptide (residues 1267-1273), biotinylated], the equilibrium dissociation constant (Kd) in experiment [3] was 4.2 ± 0.4 µM; in experiment [4], 3.8 ± 0.36 µM; in experiment [5], 2.3 ± 0.23 µM. Regarding GVKLHYT (also: biotinylated) [wild-type SARS-CoV-2 S tail heptapeptide (residues 1267-1273), biotinylated], the binding result in experiment [6] was “binds”. In experiment [3], this molecule registered a Kd of 3.6 ± 0.4 µM.

For orientation: Kd means the equilibrium constant for the complex coming apart.
